{"source": "paper PMC8563363", "about": "(Cell, 2021)", "molecular_target": "T1, SMC1 (human, UniProt Q14683 1-1233)", "T1 sequence": "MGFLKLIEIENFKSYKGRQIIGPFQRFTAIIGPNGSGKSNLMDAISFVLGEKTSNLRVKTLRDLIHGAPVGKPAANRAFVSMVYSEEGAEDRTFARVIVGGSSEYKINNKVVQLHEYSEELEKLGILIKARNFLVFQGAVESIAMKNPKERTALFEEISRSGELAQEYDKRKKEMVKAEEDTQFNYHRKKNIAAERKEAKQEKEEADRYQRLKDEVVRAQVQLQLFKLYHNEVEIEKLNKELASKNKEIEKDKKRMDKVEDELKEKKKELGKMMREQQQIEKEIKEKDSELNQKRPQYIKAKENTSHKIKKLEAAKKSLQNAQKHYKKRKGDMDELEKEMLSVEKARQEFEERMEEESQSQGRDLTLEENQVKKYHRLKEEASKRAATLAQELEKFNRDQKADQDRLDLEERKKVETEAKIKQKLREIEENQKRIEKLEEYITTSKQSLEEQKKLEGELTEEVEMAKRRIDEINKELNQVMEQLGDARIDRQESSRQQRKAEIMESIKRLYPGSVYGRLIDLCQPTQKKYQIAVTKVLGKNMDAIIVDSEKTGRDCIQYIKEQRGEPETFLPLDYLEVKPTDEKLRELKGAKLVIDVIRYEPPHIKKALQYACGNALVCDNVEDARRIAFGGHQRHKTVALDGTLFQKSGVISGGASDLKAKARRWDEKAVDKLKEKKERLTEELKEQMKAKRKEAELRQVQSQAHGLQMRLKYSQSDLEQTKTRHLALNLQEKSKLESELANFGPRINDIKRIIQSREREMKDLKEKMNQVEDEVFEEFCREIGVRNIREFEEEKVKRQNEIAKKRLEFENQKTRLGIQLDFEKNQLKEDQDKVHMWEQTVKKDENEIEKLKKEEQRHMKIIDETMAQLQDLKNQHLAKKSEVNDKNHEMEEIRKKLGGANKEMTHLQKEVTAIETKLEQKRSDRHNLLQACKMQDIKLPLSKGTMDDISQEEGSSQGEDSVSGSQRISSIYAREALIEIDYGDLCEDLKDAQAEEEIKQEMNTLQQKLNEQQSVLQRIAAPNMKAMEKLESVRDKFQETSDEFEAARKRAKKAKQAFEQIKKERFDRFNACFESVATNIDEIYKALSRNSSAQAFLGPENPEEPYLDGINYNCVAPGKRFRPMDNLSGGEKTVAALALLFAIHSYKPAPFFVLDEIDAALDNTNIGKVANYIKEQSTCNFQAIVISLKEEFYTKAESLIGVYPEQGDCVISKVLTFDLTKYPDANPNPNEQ", "assay": "mass photometry", "data": [{"binder": "SMC3 with a C-terminal Flag tag (natural protein) MYIKQVIIQGFRSYRDQTIVDPFSSKHNVIVGRNGSGKSNFFYAIQFVLSDEFSHLRPEQRLALLHEGTGPRVISAFVEIIFDNSDNRLPIDKEEVSLRRVIGAKKDQYFLDKKMVTKNDVMNLLESAGFSRSNPYYIVKQGKINQMATAPDSQRLKLLREVAGTRVYDERKEESISLMKETEGKREKINELLKYIEERLHTLEEEKEELAQYQKWDKMRRALEYTIYNQELNETRAKLDELSAKRETSGEKSRQLRDAQQDARDKMEDIERQVRELKTKISAMKEEKEQLSAERQEQIKQRTKLELKAKDLQDELAGNSEQRKRLLKERQKLLEKIEEKQKELAETEPKFNSVKEKEERGIARLAQATQERTDLYAKQGRGSQFTSKEERDKWIKKELKSLDQAINDKKRQIAAIHKDLEDTEANKEKNLEQYNKLDQDLNEVKARVEELDRKYYEVKNKKDELQSERNYLWREENAEQQALAAKREDLEKKQQLLRAATGKAILNGIDSINKVLDHFRRKGINQHVQNGYHGIVMNNFECEPAFYTCVEVTAGNRLFYHIVDSDEVSTKILMEFNKMNLPGEVTFLPLNKLDVRDTAYPETNDAIPMISKLRYNPRFDKAFKHVFGKTLICRSMEVSTQLARAFTMDCITLEGDQVSHRGALTGGYYDTRKSRLELQKDVRKAEEELGELEAKLNENLRRNIERINNEIDQLMNQMQQIETQQRKFKASRDSILSEMKMLKEKRQQSEKTFMPKQRSLQSLEASLHAMESTRESLKAELGTDLLSQLSLEDQKRVDALNDEIRQLQQENRQLLNERIKLEGIITRVETYLNENLRKRLDQVEQELNELRETEGGTVLTATTSELEAINKRVKDTMARSEDLDNSIDKTEAGIKELQKSMERWKNMEKEHMDAINHDTKELEKMTNRQGMLLKKKEECMKKIRELGSLPQEAFEKYQTLSLKQLFRKLEQCNTELKKYSHVNKKALDQFVNFSEQKEKLIKRQEELDRGYKSIMELMNVLELRKYEAIQLTFKQVSKNFSEVFQKLVPGGKATLVMKKGDVEGSQSQDEGEGSGESERGSGSQSSVPSVDQFTGVGIRVSFTGKQGEMREMQQLSGGQKSLVALALIFAIQKCDPAPFYLFDEIDQALDAQHRKAVSDMIMELAVHAQFITTTFRPELLESADKFYGVKFRNKVSHIDVITAEMAKDFVEDDTTHG", "values": [{"measurement": "binding result", "value": "binds"}]}]}
